Experimental data: patent US20260159603A1

Molecular target: huCD5-BTN (human) (UniProt P06127)
Assay: BLI in tandem, huCD5-BTN saturated with UCHT2 first; competitor UCHT2

Chain of huCD5-BTN (human) (P06127 25-372 limits assumed): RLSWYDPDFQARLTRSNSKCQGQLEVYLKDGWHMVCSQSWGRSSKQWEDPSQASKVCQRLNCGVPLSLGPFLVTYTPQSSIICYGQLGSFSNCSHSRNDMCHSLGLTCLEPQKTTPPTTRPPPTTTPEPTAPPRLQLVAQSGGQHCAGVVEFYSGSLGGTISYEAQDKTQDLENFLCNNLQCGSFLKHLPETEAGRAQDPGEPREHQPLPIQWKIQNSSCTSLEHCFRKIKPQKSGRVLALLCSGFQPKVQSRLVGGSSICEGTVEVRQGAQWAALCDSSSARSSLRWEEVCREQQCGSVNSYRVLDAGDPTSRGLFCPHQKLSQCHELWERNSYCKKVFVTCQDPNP

response (Response Units): 0
Substance: UCHT2 (antibody)
